We go through eight molecules from article PMC3294036 (Nature structural & molecular biology, 2012).

The target in test [1] is T1, calcineurin (CN A–CN B heterodimer), recombinant (UniProt Q08209;P63098).
In test [2] the target is T1, calcineurin (CN A–CN B heterodimer), …. Kind of test: SEC-MALS. Background: In gel filtration, larger molecules generally elute earlier.
Test [3] addresses rhodamine-CN (calcineurin labelled with tetramethylrhodamine acceptor) (UniProt Q08209;P63098, tetramethylrhodamine label on CN (chain and site not stated)). Kind of test: FRET or BRET. Background: Bioluminescence resonance energy transfer reports proximity on the nanometre scale.

A word on the Ki: it is a dissociation constant, usually derived from enzyme kinetics or from competition with a known ligand. A word on the stoichiometry N: it is the number of molecules, sites or subunits per partner or assembly. Broadly, the koff is a measure of how fast the partners let go of each other.

T1 sequence (P63098 16-170, one chain of several): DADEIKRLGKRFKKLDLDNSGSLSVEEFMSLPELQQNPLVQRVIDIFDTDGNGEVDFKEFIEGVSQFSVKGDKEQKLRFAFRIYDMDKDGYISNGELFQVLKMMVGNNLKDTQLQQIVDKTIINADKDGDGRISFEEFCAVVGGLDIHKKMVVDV

B1: GST-tagged wildtype AKAP79(333–408) (PIAIIIT) (domain or fragment)
chain: KRMEPIAIIITDTEISEFDVTKSKNVPKQFLISAENEQVGVFANDNGFEDRTSEQYETLLIETASSLVKNAIQLSI
As to B1, in test [1], the inhibition constant Ki was determined as 0.36 µM.

B2: AKAP79(333–408) (domain or fragment)
chain: KRMEPIAIIITDTEISEFDVTKSKNVPKQFLISAENEQVGVFANDNGFEDRTSEQYETLLIETASSLVKNAIQLSI
On to B2, for which the “stoichiometry N” value in test [2] amounted to 1.

B3: ATTO425-AKAP79(333–408) I338P variant (PPAIIIT) (domain or fragment)
chain: KRMEPPAIIITDTEISEFDVTKSKNVPKQFLISAENEQVGVFANDNGFEDRTSEQYETLLIETASSLVKNAIQLSI
modifications: ATTO 425 donor label (site not stated)
B3: the koff in test [3] was found to be 4.24 s⁻¹.

B4: GST-AKAP79(333–408) I338P (PPAIIIT) (domain or fragment)
chain: KRMEPPAIIITDTEISEFDVTKSKNVPKQFLISAENEQVGVFANDNGFEDRTSEQYETLLIETASSLVKNAIQLSI
Turning to B4, the Ki in test [1] worked out at 0.08 µM.

B5: GST-AKAP79(333–408) I338P T343A (PPAIIIA) (domain or fragment)
chain: KRMEPPAIIIADTEISEFDVTKSKNVPKQFLISAENEQVGVFANDNGFEDRTSEQYETLLIETASSLVKNAIQLSI
For the molecule B5, the Ki in test [1] is 12 µM.

B6: GST-AKAP79(333–408) T343A (PIAIIIA) (domain or fragment)
chain: KRMEPIAIIIADTEISEFDVTKSKNVPKQFLISAENEQVGVFANDNGFEDRTSEQYETLLIETASSLVKNAIQLSI
With B6, the Ki in test [1] is 39 µM. On the same count and under the same terms, next, KRMEPAAIIITDTEIS (domain or fragment) [GST-AKAP79(333–348) I338A (PAAIIIT)]: 47 µM. As for KRMEAIAIIITDTEIS (domain or fragment) [GST-AKAP79(333–348) P337A (AIAIIIT)], the Ki in test [1] is 3.7 µM.
